Molecular target: ndufs4^-/- complex I (N-module plus QP subcomplex) (mouse (endogenous in heart and kidney)) (UniProt Q91YT0)
Assay: cryo-EM structure

Sequence of assembly factor NDUFAF2 (natural protein) (Q59J78 whole entry): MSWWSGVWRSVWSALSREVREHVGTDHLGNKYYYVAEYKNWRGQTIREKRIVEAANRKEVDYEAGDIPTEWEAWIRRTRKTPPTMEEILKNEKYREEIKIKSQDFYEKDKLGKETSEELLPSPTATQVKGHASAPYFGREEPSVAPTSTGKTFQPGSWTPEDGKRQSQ

assembly factor NDUFAF2 (natural protein)
percent of particles that contain NDUFAF2: 14%
